# Data taken from patent EP3216458A1.
# Biological target: Neuropilin-1 (Nrp-1), zebrafish (zebrafish) (UniProt Q8QFX6)
# Assay: cell-based or functional assay
# Chain of UniProt Q8QFX6 (Q8QFX6 20-923 limits assumed): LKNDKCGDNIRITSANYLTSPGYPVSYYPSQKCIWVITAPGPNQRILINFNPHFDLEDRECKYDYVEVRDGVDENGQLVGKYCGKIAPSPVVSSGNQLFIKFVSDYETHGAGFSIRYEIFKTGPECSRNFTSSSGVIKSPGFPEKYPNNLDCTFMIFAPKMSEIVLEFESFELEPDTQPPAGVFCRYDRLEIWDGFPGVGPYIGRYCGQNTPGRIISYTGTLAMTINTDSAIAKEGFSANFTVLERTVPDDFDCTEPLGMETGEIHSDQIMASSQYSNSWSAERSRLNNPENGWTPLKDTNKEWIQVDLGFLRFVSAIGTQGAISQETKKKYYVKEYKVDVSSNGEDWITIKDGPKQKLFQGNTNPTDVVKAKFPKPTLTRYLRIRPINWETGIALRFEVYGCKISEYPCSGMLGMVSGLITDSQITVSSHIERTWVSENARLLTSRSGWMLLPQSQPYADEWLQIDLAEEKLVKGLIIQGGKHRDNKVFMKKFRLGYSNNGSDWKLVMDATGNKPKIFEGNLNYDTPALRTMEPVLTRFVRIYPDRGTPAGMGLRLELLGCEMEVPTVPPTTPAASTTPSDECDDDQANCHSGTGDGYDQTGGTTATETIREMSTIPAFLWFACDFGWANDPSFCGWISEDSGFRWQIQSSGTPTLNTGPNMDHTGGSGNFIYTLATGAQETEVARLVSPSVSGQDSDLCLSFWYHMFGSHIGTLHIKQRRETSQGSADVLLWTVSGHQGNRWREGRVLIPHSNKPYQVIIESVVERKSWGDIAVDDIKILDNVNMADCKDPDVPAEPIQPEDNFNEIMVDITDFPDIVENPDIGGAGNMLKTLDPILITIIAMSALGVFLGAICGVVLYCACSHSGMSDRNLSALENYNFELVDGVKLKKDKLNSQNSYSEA
substance,measurement,value
Vegfaa-165 R165E (zebrafish VEGF-A isoform 165 with arginine 165 changed to glutamic acid) (ligand),Rescue percentage (embryos with blood flow circulation and without pericardial edema after mRNA injection into vegfaa-/- zebrafish),3%
